No end group written: not given here.
B1: ADP273 (protein)
chain: RGSCQACGDSVLVVSEDVNYEPDLDFHQGRLYWSDLQAMFLQFLGEGRLEDTIRQTSLRERVAGSAGMAALTQDIRAALSRQKLDHVWTDTHYVGLQFPDPAHPNTLHWVDEAGKVGEQLPLEDPDVYCPYSAIGNVTGELVYAHYGRPEDLQDLRARGVDPVGRLLLVRVGVISFAQKVTNAQDFGAQGVLIYPEPADFSQDPPKPSLSSQQAVYGHVHLGTGDPYTPGFPSFNQTQFPPVASSGLPSIPAQPISADIASRLLRKLKGPVAPQEWQGSLLGSPYHLGPGPRLRLVVNNHRTSTPINNIFGCIEGRSEPDHYVVIGAQRDAWGPGAAKSAVGTAILLELVRTFSSMVSNGFRPRRSLLFISWDGGDFGSVGSTEWLEGYLSVLHLKAVVYVSLDNAVLGDDKFHAKTSPLLTSLIESVLKQVDSPNHSGQTLYEQVVFTNPSWDAEVIRPLPMDSSAYSFTAFVGVPAVEFSFMEDDQAYPFLHTKEDTYENLHKVLQGRLPAVAQAVAQLAGQLLIRLSHDRLLPLDFGRYGDVVLRHIGNLNEFSGDLKARGLTLQWVYSARGDYIRAAEKLRQEIYSSEERDERLTRMYNVRIMRVEFYFLSQYVSPADSPFRHIFMGRGDHTLGALLDHLRLLRSNSSGTPGATSSTGFQESRFRRQLALLTWTLQGAANALSGDVWNIDNNF
modifications: bait human Fc-tagged dimer
B2: ADP333 (protein)
chain: MASVVLPSGSQCAAAAAAAAPPGLRLRLLLLLFSAAALIPTGDGQNLFTKDVTVIEGEVATISCQVNKSDDSVIQLLNPNRQTIYFRDFRPLKDSRFQLLNFSSSELKVSLTNVSISDEGRYFCQLYTDPPQESYTTITVLVPPRNLMIDIQKDTAVEGEEIEVNCTAMASKPATTIRWFKGNTELKGKSEVEEWSDMYTVTSQLMLKVHKEDDGVPVICQVEHPAVTGNLQTQRYLEVQYKPQVHIQMTYPLQGLTREGDALELTCEAIGKPQPVMVTWVRVDDEMPQHAVLSGPNLFINNLNKTDNGTYRCEASNIVGKAHSDYMLYVYDPPTTIPPPTT
modifications: bait human Fc-tagged dimer
B3: ADP359 (protein)
chain: MAAEWASRFWLWATLLIPAAAVYEDQVGKFDWRQQYVGKVKFASLEFSPGSKKLVVATEKNVIAALNSRTGEILWRHVDKGTAEGAVDAMLLHGQDVITVSNGGRIMRSWETNIGGLNWEITLDSGSFQALGLVGLQESVRYIAVLKKTTLALHHLSSGHLKWVEHLPESDSIHYQMVYSYGSGVVWALGVVPFSHVNIVKFNVEDGEIVQQVRVSTPWLQHLSGACGVVDEAVLVCPDPSSRSLQTLALETEWELRQIPLQSLDLEFGSGFQPRVLPTQPNPVDASRAQFFLHLSPSHYALLQYHYGTLSLLKNFPQTALVSFATTGEKTVAAVMACRNEVQKSSSSEDGSMGSFSEKSSSKDSLACFNQTYTINLYLVETGRRLLDTTITFSLEQSGTRPERLYIQVFLKKDDSVGYRALVQTEDHLLLFLQQLAGKVVLWSREESLAEVVCLEMVDLPLTGAQAELEGEFGKKADGLLGMFLKRLSSQLILLQAWTSHLWKMFYDARKPRSQIKNEINIDTLARDEFNLQKMMVMVTASGKLFGIESSSGTILWKQYLPNVKPDSSFKLMVQRTTAHFPHPPQCTLLVKDKESGMSSLYVFNPIFGKWSQVAPPVLKRPILQSLLLPVMDQDYAKVLLLIDDEYKVTAFPATRNVLRQLHELAPSIFFYLVDAEQGRLCGYRLRKDLTTELSWELTIPPEVQRIVKVKGKRSSEHVHSQGRVMGDRSVLYKSLNPNLLAVVTESTDAHHERTFIGIFLIDGVTGRIIHSSVQKKAKGPVHIVHSENWVVYQYWNTKARRNEFTVLELYEGTEQYNATAFSSLDRPQLPQVLQQSYIFPSSISAMEATITERGITSRHLLIGLPSGAILSLPKALLDPRRPEIPTEQSREENLIPYSPDVQIHAERFINYNQTVSRMRGIYTAPSGLESTCLVVAYGLDIYQTRVYPS
modifications: bait human Fc-tagged dimer
B4: ADP316 (protein)
chain: MAAAGAAVARSPGIGAGPALRARRSPPPRAARLPRLLVLLAAAAVGPGAGGAARLYRAGEDAVWVLDSGSVRGATANSSAAWLVQFYSSWCGHCIGYAPTWRALAGDVRDWASAIRVAALDCMEEKNQAVCHDYDIHFYPTFRYFKAFTKEFTTGENFKGPDRELRTVRQTMIDFLQNHTEGSRPPACPRLDPIQPSDVLSLLDNRGSHYVAIVFESNSSYLGREVILDLIPYESIVVTRALDGDKAFLEKLGVSSVPSCYLIYPNGSHGLINVVKPLRAFFSSYLKSLPDVRKKSLPLPEKPHKEENSEIVVWREFDKSKLYTVDLESGLHYLLRVELAAHKSLAGAELKTLKDFVTVLAKLFPGRPPVKKLLEMLQEWLASLPLDRIPYNAVLDLVNNKMRISGIFLTNHIKWVGCQGSRSELRGYPCSLWKLFHTLTVEASTHPDALVGTGFEDDPQAVLQTMRRYVHTFFGCKECGEHFEEMAKESMDSVKTPDQAILWLWKKHNMVNGRLAGHLSEDPRFPKLQWPTPDLCPACHEEIKGLASWDEGHVLTFLKQHYGRDNLLDTYSADQGDSSEGGTLARGEEEEKRLTPPEVSHGDRDTQSVRPPGALGPRPALPESLHHSLDGKLQSLDGPGAHKEVGGAAPFLGVDFSSLDM
modifications: bait human Fc-tagged dimer
B5: ADP383 (protein)
chain: GLKPSCAKEVKSCKGRCFERTFGNCRCDAACVELGNCCLDYQETCIEPEHIWTCNKFRCGEKRLTRSLCACSDDCKDKGDCCINYSSVCQGEKSWVEEPCESINEPQCPAGFETPPTLLFSLDGFRAEYLHTWGGLLPVISKLKKCGTYTKNMRPVYPTKTFPNHYSIVTGLYPESHGIIDNKMYDPKMNASFSLKSKEKFNPEWYKGEPIWVTAKYQGLKSGTFFWPGSDVEINGIFPDIYKMYNGSVPFEERILAVLQWLQLPKDERPHFYTLYLEEPDSSGHSYGPVSSEVIKALQRVDGMVGMLMDGLKELNLHRCLNLILISDHGMEQGSCKKYIYLNKYLGDVKNIKVIYGPAARLRPSDVPDKYYSFNYEGIARNLSCREPNQHFKPYLKHFLPKRLHFAKSDRIEPLTFYLDPQWQLALNPSERKYCGSGFHGSDNVFSNMQALFVGYGPGFKHGIEADTFENIEVYNLMCDLLNLTPAPNNGTHGSLNHLLKNPVYTPKHPKEVHPLVQCPFTRNPRDNLGCSCNPSILPIEDFQTQFNLTVAEEKIIKHETLPYGRPRVLQKENTICLLSQHQFMSGYSQDILMPLWTSYTVDRNDSFSTEDFSNCLYQDFRIPLSPVHKCSFYKNNTKVSYGFLSPPQLNKNSSGIYSEALLTTNIVPMYQSFQVIWRYFHDTLLRKYAEERNGVNVVSGPVFDFDYDGRCDSLENLRQKRRVIRNQEILIPTHFFIVLTSCKDTSQTPLHCENLDTLAFILPHRTDNSESCVHGKHDSSWVEELLMLHRARITDVEHITGLSFYQQRKEPVSDILKLKTHLPTFSQED
modifications: bait human Fc-tagged dimer
B6: ADP096 (protein)
chain: GIQYQTRSPSVCLSEACVSVTSSILSSMDPTVDPCHDFFSYACGGWIKANPVPDGHSRWGTFSNLWEHNQAIIKHLLENSTASVSEAERKAQVYYRACMNETRIEELRAKPLMELIERLGGWNITGPWAKDNFQDTLQVVTAHYRTSPFFSVYVSADSKNSNSNVIQVDQSGLGLPSRDYYLNKTENEKVLTGYLNYMVQLGKLLGGGDEEAIRPQMQQILDFETALANITIPQEKRRDEELIYHKVTAAELQTLAPAINWLPFLNTIFYPVEINESEPIVVYDKEYLEQISTLINTTDRCLLNNYMIWNLVRKTSSFLDQRFQDADEKFMEVMYGTKKTCLPRWKFCVSDTENNLGFALGPMFVKATFAEDSKSIATEIILEIKKAFEESLSTLKWMDEETRKSAKEKADAIYNMIGYPNFIMDPKELDKVFNDYTAVPDLYFENAMRFFNFSWRVTADQLRKAPNRDQWSMTPPMVNAYYSPTKNEIVFPAGILQAPFYTRSSPKALNFGGIGVVVGHELTHAFDDQGREYDKDGNLRPWWKNSSVEAFKRQTECMVEQYSNYSVNGEPVNGRHTLGENIADNGGLKAAYRAYQNWVKKNGAEHSLPTLGLTNNQLFFLGFAQVWCSVRTPESSHEGLITDPHSPSRFRVIGSLSNSKEFSEHFRCPPGSPMNPPHKCEVW
modifications: bait human Fc-tagged dimer
B7: ADP121 (protein)
chain: MGTLLLVLWLATRGSALYFHIGETEKKCFIEEIPDETMVIGNYRTQLYDKQREEYQPATPGLGMFVEVKDPEDKVILARQYGSEGRFTFTSHTPGEHQICLHSNSTKFSLFAGGMLRVHLDIQVGEHANDYAEIAAKDKLSELQLRVRQLVEQVEQIQKEQNYQRWREERFRQTSESTNQR
modifications: bait human Fc-tagged dimer
B8: ADP269 (protein)
chain: SRHQAPCGPQAFAHAAVAADSKVCSDIGRAILQQQGSPVDATIAALVCTSVVNPQSMGLGGGVIFTIYNVTTGKVEVINARETVPASHAPSLLDQCAQALPLGTGAQWIGVPGELRGYAEAHRRHGRLPWAQLFQPTIALLRGGHVVAPVLSRFLHNSILRPSLQASTLRQLFFNGTEPLRPQDPLPWPALATTLETVATEGVEVFYTGRLGQMLVEDIAKEGSQLTLQDLAKFQPEVVDALEVPLGDYTLYSPPPPAGGAILSFILNVLRGFNFSTESMARPEGRVNVYHHLVETLKFAKGQRWRLGDPRSHPKLQNASRDLLGETLAQLIRQQIDGRGDHQLSHYSLAEAWGHGTGTSHVSVLGEDGSAVAATSTINTPFGAMVYSPRTGIILNNELLDLCERCPRGSGTTPSPAVSGDRVGGAPGRCWPPVPGERSPSSMVPSILINKAQGSKLVIGGAGGELIISAVAQAIMSKLWLGFDLRAAIAAPILHVNSKGCVEYEPNFSQEVQRGLQDRGQNQTQRPFFLNVVQAVSQEGACVYAVSDLRKSGEAAGY
modifications: bait human Fc-tagged dimer
B9: ADP368 (protein)
chain: MERASCLLLLLLPLVHVSATTPEPCELDDEDFRCVCNFSEPQPDWSEAFQCVSAVEVEIHAGGLNLEPFLKRVDADADPRQYADTVKALRVRRLTVGAAQVPAQLLVGALRVLAYSRLKELTLEDLKITGTMPPLPLEATGLALSSLRLRNVSWATGRSWLAELQQWLKPGLKVLSIAQAHSPAFSCEQVRAFPALTSLDLSDNPGLGERGLMAALCPHKFPAIQNLALRNTGMETPTGVCAALAAAGVQPHSLDLSHNSLRATVNPSAPRCMWSSALNSLNLSFAGLEQVPKGLPAKLRVLDLSCNRLNRAPQPDELPEVDNLTLDGNPFLVPGTALPHEGSMN
modifications: bait human Fc-tagged dimer
B10: ADP332 (protein)
chain: MAPPGRRECPFPSWRFPGLLLAAMVLLLYSFSDACEEPPTFEAMELIGKPKPYYEIGERVDYKCKKGYFYIPPLATHTICDRNHTWLPVSDDACYRETCPYIRDPLNGQAVPANGTYEFGYQMHFICNEGYYLIGEEILYCELKGSVAIWSGKPPICEKVLCTPPPKIKNGKHTFSEVEVFEYLDAVTYSCDPAPGPDPFSLIGESTIYCGDNSVWSRAAPECKVVKCRFPVVENGKQISGFGKKFYYKATVMFECDKGFYLDGSDTIVCDSNSTWDPPVPKCLKVLPPSSTKPPALSHSVSTSSTTKSPASSASGPRPTYKPPVSNYPGYPKPEEGILDSLDV
modifications: bait human Fc-tagged dimer

These binders were tested against Circumsporozoite protein (CSP) (Plasmodium falciparum (isolate 3D7), UniProt Q7K740) (assay: AVEXIS screen signal:noise (double-corrected)).
Circumsporozoite protein (CSP), sequence (Q7K740 19-374): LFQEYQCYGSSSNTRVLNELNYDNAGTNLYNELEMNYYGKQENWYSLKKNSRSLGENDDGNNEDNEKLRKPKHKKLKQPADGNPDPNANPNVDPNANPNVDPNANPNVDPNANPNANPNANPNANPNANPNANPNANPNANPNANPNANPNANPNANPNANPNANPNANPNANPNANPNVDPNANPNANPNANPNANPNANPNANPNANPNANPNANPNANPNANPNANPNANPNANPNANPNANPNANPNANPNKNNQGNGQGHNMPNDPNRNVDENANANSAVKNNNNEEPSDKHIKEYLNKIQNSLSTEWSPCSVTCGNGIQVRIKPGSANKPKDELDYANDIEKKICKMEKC

| Binder | binding score |
| --- | --- |
| MASLGHILVFCVGLLTMAKAESPKEHDPFTYDYQS (also: human Fc-tagged dimer) [ADP327] | 1.89 |
| B1 | 0.72 |
| B2 | 1.11 |
| B3 | 0.432 |
| B4 | 1.06 |
| B5 | 0.856 |
| B6 | 0.507 |
| B7 | 0.979 |
| B8 | 0.734 |
| B9 | 1.29 |
| B10 | 0.982 |

— publication PMC11098746 (2024)
